The record followed here is paper PMC8979966.

To fix the notation:
B1: TCR 868 CDR3-alpha fragment GAHDYALN, as printed (the 868 form used here; an outside source, not checked, gives natural 868 a different CDR3-alpha) (parent)
chain: GAHDYALN

Variants of B1 are the subject of the experiment. The experiment is described as follows: YAMTAD yeast mating, deep sequencing; 2 biological x 4 technical repeats. Particulars: with SL9 ([…]) on HLA-A*02:01, single chain; S. cerevisiae mating; SL9 group vs negative-control group; higher = more enriched with SL9 than with the negative controls; the paper calls a variant enriched at SL9/NC > 1 and P < 0.05; unresolved parent; not an affinity; keep out of graded; scale: ratio 'SL9/NC': mean frequency in the SL9-HLA-A*02:01 group / mean frequency in the sheet's 'NC' group, each normalised …; numbering: sequential-on-construct, sequence starts at 1.
With GACDYALN, the screen value came to 1.13.

With LAHDYALN, the screen value came out at 1.21.

Regarding GLHDYALN, the screen value turned out to be 1.06.
